# Read-outs that look alike come from different tables or passages of the source.
# Tests used:
# [1] = system: MAbs specific for DNA-dependent ATPase A
# [2] = target: T1, Active DNA-dependent ATPase A Domain (ADAAD, 82 kDa) (Bos taurus) (UniProt Q9TTA5); conditions: ATP hydrolysis
# T1 sequence: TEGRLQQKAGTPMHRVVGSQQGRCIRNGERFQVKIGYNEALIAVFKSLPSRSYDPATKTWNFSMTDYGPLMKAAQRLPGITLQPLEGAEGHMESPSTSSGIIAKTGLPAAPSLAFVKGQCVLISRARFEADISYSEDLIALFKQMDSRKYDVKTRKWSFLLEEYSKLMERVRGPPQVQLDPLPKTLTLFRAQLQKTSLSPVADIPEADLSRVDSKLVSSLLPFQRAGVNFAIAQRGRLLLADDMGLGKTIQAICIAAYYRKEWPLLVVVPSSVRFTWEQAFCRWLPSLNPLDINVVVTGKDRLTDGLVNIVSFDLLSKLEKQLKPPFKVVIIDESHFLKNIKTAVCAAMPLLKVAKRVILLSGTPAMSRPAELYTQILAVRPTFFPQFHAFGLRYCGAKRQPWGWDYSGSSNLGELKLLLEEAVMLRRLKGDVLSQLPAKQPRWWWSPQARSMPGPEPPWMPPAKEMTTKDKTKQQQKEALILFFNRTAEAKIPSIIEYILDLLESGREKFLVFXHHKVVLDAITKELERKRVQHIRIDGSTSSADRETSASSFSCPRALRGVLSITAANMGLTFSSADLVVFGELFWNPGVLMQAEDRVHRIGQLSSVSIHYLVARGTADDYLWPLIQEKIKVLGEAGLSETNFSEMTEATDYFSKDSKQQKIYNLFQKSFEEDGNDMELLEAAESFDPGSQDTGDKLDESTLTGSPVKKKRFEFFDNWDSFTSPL
# [3] = target: T1, Active DNA-dependent ATPase A Domain (ADAAD, 82 kDa) (Bos taurus); conditions: apparent binding constant from ATP hydrolysis kinetics
# [4] = target: T1, Active DNA-dependent ATPase A Domain (ADAAD, 82 kDa) (Bos taurus); conditions: blunt-ended stem-loop, dG 18.4; ATP hydrolysis; SEQ:1 inferred
# [5] = target: T1, Active DNA-dependent ATPase A Domain (ADAAD, 82 kDa) (Bos taurus); conditions: ATP hydrolysis; remark: listed apart in the source
# [6] = target: T1, Active DNA-dependent ATPase A Domain (ADAAD, 82 kDa) (Bos taurus); conditions: ATP hydrolysis; remark: listed apart in the source
substance,measurement,setting,value
DNA-dependent ATPase A,DNA-dependent ATP hydrolysis in vitro,[1],none of the MAbs demonstrate inhibition of DNA-dependent ATP hydrolysis in vitro
"Table 16 structure 7 blunt-ended duplex, 4 base mismatch",activity (relative activity),[2],66.5
"stem-loop DNA, 9-base loop",Ka,[3],8e+07 M⁻¹
"GCGCAATTGCGCTCGACGATTTTTTAGCGCAATTGCGC [stem-loop DNA, 12-base loop]",activity (relative activity),[4],90
"stem-loop DNA, 6-base loop",Ka,[3],5e+07 M⁻¹
"Table 16 structure 8 blunt-ended duplex, 10 base mismatch",activity (relative activity),[5],83.7
"stem-loop DNA, 3-base loop",Ka,[3],2e+07 M⁻¹
Table 16 structure 6 AT-rich blunt-ended duplex,activity (relative activity),[6],49

# From patent US6531306
